Consider 1 substance from FireProtDB (doi:10.1371/journal.pone.0110439).

For this data set the following is noted: Homo sapiens, pH 7, transition: 2, structure 1DXX; for ddG of mutation (higher = less stable) / unfolding free energy: Urea; for Tm / change of melting temperature, mutant - wild type (higher = more stable): Thermal.
Setting [1] is: 25 °C, Fluorescence, PBS, reversible: yes.
[2] abbreviates: CD, sodium phosphate 0.1 M, NaCl 0.15 M, reversible: yes.
Setting [3] is: Fluorescence, sodium phosphate 0.1 M, NaCl 0.15 M, reversible: yes.

Take Dystrophin, P11532 K18N: under setting [1], the “ddG of mutation (higher = less stable)” value turned out to be 3.7 kcal/mol and the unfolding free energy stood at 7.5 kcal/mol. Besides, where the note is “CD, PBS, reversible: no”, the melting temperature (Tm) came out at 57.6 °C and the “change of melting temperature, mutant - wild type (higher = more stable)” value is -3.4 °C. For the same substance, under setting [2], the midpoint of thermal melting (Tm) worked out at 57.6 °C; the “change of melting temperature, mutant - wild type (higher = more stable)” value was -3.4 °C; the “ddG of mutation (higher = less stable)” value worked out at 3.7 kcal/mol; the unfolding free energy was determined as 7.5 kcal/mol. Further, under setting [3], the “ddG of mutation (higher = less stable)” value came to 3.7 kcal/mol and the unfolding free energy was found to be 7.5 kcal/mol.
